Experiment: yeast display, Sf9 membrane polyspecificity reagent, FACS + sequencing; frameworks hold sequencing errors
How it was run: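 Galactose induction of a Saccharomyces cerevisiae BJ5465 synthetic nanobody display library ran 36–48 hours. The cells were then stained for 1 hour at 4 °C with 10% biotinylated, detergent-solubilized Sf9 membrane reagent, pulled down on streptavidin microbeads and FACS-sorted into low and high (top ~1%) gates on expression and reagent-binding fluorescence. Labels for polyreactivity follow the gate of origin.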

Sequence | polyreactivity (PSR sort gate)
QVQLVESGGGLVQAGGSLRLSCAASGRIFTGNALGWYRPAPGKERELVAVINRTGGSTYYADSVKGRFTISRDNAKNTVYLQMNSLKPEETAVYSCAAYVPWGWRYGYNYWGQGTQVTVSS | high polyreactivity
QVQLVESGGGLVQAGGSLRLSCAASGRIFTGNAMGWYRQAPGKERELVAAISASGGRTYYAYSVKGRFTISRDHAKNTVYLQMNSLKPEDTAVYYCAKVGRTAYTSTYTGVSAYDYWGQGTQVTVSS | high polyreactivity
QVQLVESGGGLVQAGGSLRLSCAASGRIFTGNAMGWYRQAPGKERELVAAITFSGGSTYYADSVKGRFTISRDNAKNTVYLQMNSLKPEDTAVYYCATRSAWYGNWYYYWGQGTQVTVSS | high polyreactivity
QVQLVESGGGLVQAGGSLRLSCAASGRIFTGNAMGWYRQAPGKERELVATISTGGSTNYADSVKGRFTISRDNAKNTVYLQMNSLKPEDTAVYYCAADTYYGYIIHVEYWGQGTQVTVSS | low polyreactivity
QVQLVESGGGLVQAGGSLRLSCAASGRIFTGNAMGWYRQAPGKERELVATITRRGGSTYYADSVKGRFTISRDHAKNTVYLQMNSLKPEDTAVYYCDANRLFSYDKYGYWGQGTQVTVSS | high polyreactivity
QVQLVESGGGLVQAGGSLRLSCAASGRIFTGNAMGWYRQAPGKEREWVATITRRGGSTYYADSVKGRFTISRDNAKNTVYLQMNSLKPEDTSVYYCAANRMFSNDKYGYWGQGTQVTVSS | high polyreactivity
QVQLVESGGGLVQAGGSLRLSCAASGRIFTGNAMGWYRQAPGKESQLVAAITRNGGSTYYADSVKGRFTISRDNEKYTVYLQMNRLKPEDTAVYYCNARYSTTYYGTIYRGMDYWGQGSQVTVSS | high polyreactivity
QVQLVESGGGLVQAGGSLRLSCAASGRIFTGNVMGWYRQAPGKERELVAAISYGGGSTNYADSVKGRFTISRDNAKNTVYLQMNSLKPEDTAVYYCAACIKRYLSYYTRYGYWGQGTQVTVSS | high polyreactivity
QVQLVESGGGLVQAGGSLRLSCAASGRIFTGYAMGWNRQAPGKERELVAAISRGGSTNYADSVKGRFTISRDNAKNSVYLQMNSLKPEDTAVYYCAAGVHWDRGDYWGQGTQVTVSS | low polyreactivity
QVQLVESGGGLVQAGGSLRLSCAASGRIFTGYAMGWYRQAPGKEREFVAAITGRGGSTYYADSVKGRFTISRDNAKNTVYLQMNSLKPEDTAVYYCNALPRSPWYYRGDYWGQGTQVTVSS | high polyreactivity
QVQLVESGGGLVQAGGSLRLSCAASGRIFTHNTMGWYRQAPGKERELVATIDSGGSTNYADSVNGRFTISRDNAKNTVNLQMNSLQPEDTAVYYCAARVRPWRYLMGYWGQGTQVTVSS | low polyreactivity
QVQLVESGGGLVQAGGSLRLSCAASGRIFTINAMGWYRQAPGKDRELVAAITGSAASTYYADSVKGRFTISRDNAKNTVYLQMYSLKPEDTAVYYSNARPAGRGYNYWGQGTQVTVSS | high polyreactivity
QVQLVESGGGLVQAGGSLRLSCAASGRIFTIYAMGWYRQAPGKERELVAAISDRGTRTYYADSVKGRFTISRDNAKNTVYLQMISLKPEVTAVYYCATDALYTYGYDYWGQGTQVTVSS | low polyreactivity
QVQLVESGGGLVQAGGSLRLSCAASGRIFTIYAMGWYRQAPGKERELVAAISGGGGITNYADSVKGRFTISRDNAKNTVYLQMNSLKPEDTAVYYCAATPRAPRTISLYNYWGQGTQVTVSS | high polyreactivity
QVQLVESGGGLVQAGGSLRLSCAASGRIFTIYAMGWYRQEPGKERELVAAITRGGNTNYADSVKGRFTISRDNAKNTVYLLMNSLKPEDTAVYYCAARANVYTKKRDYWGQGTQVTVSS | high polyreactivity
QVQLVESGGGLVQAGGSLRLSCAASGRIFTKYAMGWYRQAPGKERELVAAISRGGSNTYYADSVKGRFTISRDIAKNTVYLQMNSLKPEDTAVYYCNKPYSYVGWPGTGPDPKTVYYWGQGTQVTVSS | high polyreactivity
QVQLVESGGGLVQAGGSLRLSCAASGRIFTKYAMGWYRQAPGKERELVAAISWSGGRTYYADSVKGRFTISRDNAKNTVYLQMNSLKPEDTAVYYCAAESYKTATLGEDYWGQGTQVTVSS | high polyreactivity
QVQLVESGGGLVQAGGSLRLSCAASGRIFTNAMGWYTQAPGKQRELVAAISGGSNTYYADSVKGRFTISRDNANNTVYLQMNSLKPEDTAVYYCNTDDQWWDGGYDYWGQGTQVTVSS | low polyreactivity
QVQLVESGGGLVQAGGSLRLSCAASGRIFTPYAMGWYRQAPGKEREFVATISFRGDSTYYADSVKGRFTISRDNAKNTVYLQMNSLKPEDTAVYYCNAATNRRTSDYWGQGTQVTVSS | high polyreactivity
QVQLVESGGGLVQAGGSLRLSCAASGRIFTQYTMGWYRQAPGKERELVAAINYSGGRTNYADSVKGRFTISRDIAKNTVYLQMNSLKPEDTAVYYCAAGYRRATYGYWGQGTQVTVSS | high polyreactivity
QVQLVESGGGLVQAGGSLRLSCAASGRIFTRNAMGWYRQAPGKERELVAAIRWSGDSTYYADSVKGRFTISRDNAKNTVYLQMNSLKPEDTAVYYCAADRQRSHRVGTKGHRVGYWGQGTQVTVSS | high polyreactivity
QVQLVESGGGLVQAGGSLRLSCAASGRIFTRNTMGWYRQAPGKERELVAAISSGASTYYADSVKGRFTISRDTAKNTVYLQMNSLKPEDTAVYYCATRGYARYWGLGTQVTVSS | low polyreactivity
QVQLVESGGGLVQAGGSLRLSCAASGRIFTRYAMGSYRQAPGKETEFVAAISGNGGSTYADSVKGRFTISRDNAKNTVYLQMNSLKPEDTAVYYCAAVPYGYGLASDSIFDYWGQGTQVTVSS | high polyreactivity
QVQLVESGGGLVQAGGSLRLSCAASGRIFTRYAMGWYRQAPGKERELVAAITSGGSTYYADSVKGRFSISRDNAKNTVYLQMNSLKPEDTAVYYCAAVVISSGVRYDYWGQGTQVTVSS | high polyreactivity
QVQLVESGGGLVQAGGSLRLSCAASGRIFTRYGMGWYRQAPGKEREFVAGISWSGGSTFYADSVKGRFTISRDNAKNTVYLQMHSLKPEDTAVYYCAARLYLRRPYEYWGQGTQVTVSS | high polyreactivity
QVQLVESGGGLVQAGGSLRLSCAASGRIFTRYTMGWYRQAPGKERELVASITSSGSSTYYADSVKGRFTISRDNAKNTVYLQMNSLKPEDTAVYYCAARSRLRYLYDYWGQGTQVTVSS | high polyreactivity
QVQLVESGGGLVQAGGSLRLSCAASGRIFTSNTMGWYRQAPGKESELVAAITCSGGSMYYADSVKGRFTISRDNAKNTVYLQMNSLKPEDTEVYDCAADTLGYHYWYDYWGQGTQVTVSS | low polyreactivity
QVQLVESGGGLVQAGGSLRLSCAASGRIFTSYAMGWYRQAPGKERELVAAINRGGSTYYADSVKGRFTISRDNAKNTVYLQMNSLKPEDTAVYYCNATPPYNPEFDYWGQGTQVTVSS | low polyreactivity
QVQLVESGGGLVQAGGSLRLSCAASGRIFTSYAMGWYRQAPGKERELVATITGSTASTYYADSVKGRFTISRDNAKNTVYLQMNSLKPEDTAVYYCAARSYSTYFRYYYWGQGTQVTVSS | high polyreactivity
QVQLVESGGGLVQAGGSLRLSCAASGRIFTTNAMGWYRQAPGKERELVAAITSGASTKYADSVKGRFTISRDNAKNTVYLQMNCLKPEDTAVYYCNAKRGVNLRSNWYSHLRMDHWGQGTQVTVSS | low polyreactivity

Source: the nanobody polyreactivity screen of Harvey et al. (2022)
